Biological target: T1, HY5 (Arabidopsis thaliana, UniProt O24646 1-168)
T1 sequence: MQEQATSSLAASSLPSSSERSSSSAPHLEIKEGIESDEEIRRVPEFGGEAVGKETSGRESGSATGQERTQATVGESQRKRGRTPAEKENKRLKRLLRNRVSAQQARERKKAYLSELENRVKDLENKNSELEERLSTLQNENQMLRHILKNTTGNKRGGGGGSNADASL
Test: EMSA; EMSA according to manufacturer's protocol (Thermofisher); buffer, salt, pH and temperature not stated
Settings: protein: recombinant; tags: GST (pDEST15, N-terminal); label: biotin 3' end; blunt

B1: pNRT1.1-EMSA (G-box probe, NRT1.1 promoter) (dsDNA)
DNA 1: GAGTCACACATGTGTCACTT
DNA 2: AAGTGACACATGTGTGACTC
- binding result: binds

From article PMC11144241, “Nutrient levels control root growth responses to high ambient temperature in plants”
